Reference: patent US20060160174A1 (published 2006)

Assays:
[1] = biological target: T1, soluble p97 (amino acids 20-710 of human p97 precursor), 6x his tag (human, UniProt P08582 20-710); assay: SPR, Biacore 2000, 25 C; p97 immobilised on CM5 chip, scFv fusion injected; 1:1 model
T1 construct: range 20-710; also called p97 melanotransferrin; recombinant p97; not shown: 6x his tag from vector pSecTag2
T1 sequence: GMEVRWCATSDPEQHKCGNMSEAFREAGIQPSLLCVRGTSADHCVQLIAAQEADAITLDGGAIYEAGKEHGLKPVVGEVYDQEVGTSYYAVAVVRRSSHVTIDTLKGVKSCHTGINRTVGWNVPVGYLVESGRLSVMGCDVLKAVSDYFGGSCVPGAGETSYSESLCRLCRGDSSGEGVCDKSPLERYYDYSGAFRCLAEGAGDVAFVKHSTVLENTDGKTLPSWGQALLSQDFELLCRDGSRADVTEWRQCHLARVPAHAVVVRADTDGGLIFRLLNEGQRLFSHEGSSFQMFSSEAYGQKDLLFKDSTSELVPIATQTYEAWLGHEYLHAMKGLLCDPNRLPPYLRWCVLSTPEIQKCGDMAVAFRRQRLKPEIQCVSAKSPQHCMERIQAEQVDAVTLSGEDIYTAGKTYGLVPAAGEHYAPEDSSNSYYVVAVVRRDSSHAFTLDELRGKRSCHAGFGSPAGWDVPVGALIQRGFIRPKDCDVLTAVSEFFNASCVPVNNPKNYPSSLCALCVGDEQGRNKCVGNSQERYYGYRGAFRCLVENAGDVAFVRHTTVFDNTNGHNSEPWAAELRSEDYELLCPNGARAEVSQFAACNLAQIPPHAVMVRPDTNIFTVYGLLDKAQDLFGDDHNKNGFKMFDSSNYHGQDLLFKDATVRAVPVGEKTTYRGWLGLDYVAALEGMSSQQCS

[2] = biological target: T1, soluble p97 (amino acids 20-710 of …); assay: solid-phase binding assay on wells coated with soluble p97; crude refold normalised on beta-lactamase activity; nitrocefin read-out, OD 490 nm [a]
[3] = biological target: T1, soluble p97 (amino acids 20-710 of …); assay: SEC binding assay with purified p97 (discussion of the example)

| Binder | Kd [1] [nM] | koff [1] [s⁻¹] | kon [1] [M⁻¹ s⁻¹] | binding result [2] | percent of purified protein bound to antigen [3] [%] |
| --- | --- | --- | --- | --- | --- |
| parental L49-sFv-bL fusion protein FP95 (scFv, also called L49-scFv-bL; parental molecule) scFv: MEVQLQESGPSLVKPSQTLSLTCSVTGDSITSGYWNWIRKFPGNKLEYMGYISDSGITYYNPSLKSRISITRDTSKNQYYLQLNFVTAEDTATYNCARRTLATYYAMDYWGQGTSVTVSSGSTSGSGKPGSGEGSTKGDFVMTQTPLSLPVSLGDQASISCRASQSLVHSNGNTYLHWYLQKPGQSPKLLIYRVSNRFSGVPDRFSGSGSGTDFTLKISRVEAEDLGVYFCSQSTHVPPTFGGGTKLEIKRTPVSEKQLAEVVANTITPLMKAQSVPGMAVAVIYQGKPHYYTFGKADIAANKPVTPQTLFELGSISKTFTGVLGGDAIARGEISLDDAVTRYWPQLTGKQWQGIRMLDLATYTAGGLPLQVPDEVTDNASLLRFYQNWQPQWKPGTTRLYANASIGLFGALAVKPSGMPYEQAMTTRVLKPLKLDHTWINVPKAEEAHYAWGYRDGKAVRVSPGMLDAQAYGVKTNVQDMANWVMANMAPENVADASLKQGIALAQSRYWRIGSMYQGLGWEMLNWPVEANTVVETSFGNVALAPLPVAEVNPPAPPVKASWVHKTGSTGGFGSYVAFIPEKQIGIVMLANTSYPNPARVEAAYHILEALQ | 2.31 | 0.0007 | 304000 | – | – |
| 935 (scFv, also called FP935; L49-sFv-bL mutant FP935 (Y H47 W)) MEVQLQESGPSLVKPSQTLSLTCSVTGDSITSGYWNWIRKFPGNKLEWMGYISDSGITYYNPSLKSRISITRDTSKNQYYLQLNFVTAEDTATYNCARRTLATYYAMDYWGQGTSVTVSSGSTSGSGKPGSGEGSTKGDFVMTQTPLSLPVSLGDQASISCRASQSLVHSNGNTYLHWYLQKPGQSPKLLIYRVSNRFSGVPDRFSGSGSGTDFTLKISRVEAEDLGVYFCSQSTHVPPTFGGGTKLEIKRTPVSEKQLAEVVANTITPLMKAQSVPGMAVAVIYQGKPHYYTFGKADIAANKPVTPQTLFELGSISKTFTGVLGGDAIARGEISLDDAVTRYWPQLTGKQWQGIRMLDLATYTAGGLPLQVPDEVTDNASLLRFYQNWQPQWKPGTTRLYANASIGLFGALAVKPSGMPYEQAMTTRVLKPLKLDHTWINVPKAEEAHYAWGYRDGKAVRVSPGMLDAQAYGVKTNVQDMANWVMANMAPENVADASLKQGIALAQSRYWRIGSMYQGLGWEMLNWPVEANTVVETSFGNVALAPLPVAEVNPPAPPVKASWVHKTGSTGGFGSYVAFIPEKQIGIVMLANTSYPNPARVEAAYHILEALQ | – | – | – | binds | – |
| L49-sFv-bL mutant FP945 (F H82B S) (scFv) scFv: MEVQLQESGPSLVKPSQTLSLTCSVTGDSITSGYWNWIRKFPGNKLEYMGYISDSGITYYNPSLKSRISITRDTSKNQYYLQLNSVTAEDTATYNCARRTLATYYAMDYWGQGTSVTVSSGSTSGSGKPGSGEGSTKGDFVMTQTPLSLPVSLGDQASISCRASQSLVHSNGNTYLHWYLQKPGQSPKLLIYRVSNRFSGVPDRFSGSGSGTDFTLKISRVEAEDLGVYFCSQSTHVPPTFGGGTKLEIKRTPVSEKQLAEVVANTITPLMKAQSVPGMAVAVIYQGKPHYYTFGKADIAANKPVTPQTLFELGSISKTFTGVLGGDAIARGEISLDDAVTRYWPQLTGKQWQGIRMLDLATYTAGGLPLQVPDEVTDNASLLRFYQNWQPQWKPGTTRLYANASIGLFGALAVKPSGMPYEQAMTTRVLKPLKLDHTWINVPKAEEAHYAWGYRDGKAVRVSPGMLDAQAYGVKTNVQDMANWVMANMAPENVADASLKQGIALAQSRYWRIGSMYQGLGWEMLNWPVEANTVVETSFGNVALAPLPVAEVNPPAPPVKASWVHKTGSTGGFGSYVAFIPEKQIGIVMLANTSYPNPARVEAAYHILEALQ | – | – | – | binds | – |
| L49-sFv-bL double mutant FP965 (K H39 Q, N H91 Y) (scFv) scFv: MEVQLQESGPSLVKPSQTLSLTCSVTGDSITSGYWNWIRQFPGNKLEYMGYISDSGITYYNPSLKSRISITRDTSKNQYYLQLNFVTAEDTATYYCARRTLATYYAMDYWGQGTSVTVSSGSTSGSGKPGSGEGSTKGDFVMTQTPLSLPVSLGDQASISCRASQSLVHSNGNTYLHWYLQKPGQSPKLLIYRVSNRFSGVPDRFSGSGSGTDFTLKISRVEAEDLGVYFCSQSTHVPPTFGGGTKLEIKRTPVSEKQLAEVVANTITPLMKAQSVPGMAVAVIYQGKPHYYTFGKADIAANKPVTPQTLFELGSISKTFTGVLGGDAIARGEISLDDAVTRYWPQLTGKQWQGIRMLDLATYTAGGLPLQVPDEVTDNASLLRFYQNWQPQWKPGTTRLYANASIGLFGALAVKPSGMPYEQAMTTRVLKPLKLDHTWINVPKAEEAHYAWGYRDGKAVRVSPGMLDAQAYGVKTNVQDMANWVMANMAPENVADASLKQGIALAQSRYWRIGSMYQGLGWEMLNWPVEANTVVETSFGNVALAPLPVAEVNPPAPPVKASWVHKTGSTGGFGSYVAFIPEKQIGIVMLANTSYPNPARVEAAYHILEALQ | 1.91 | 0.000765 | 400000 | – | 100 |
| L49-sFv-bL double mutant FP960 (F H82B S, N H91 Y) (scFv) scFv: MEVQLQESGPSLVKPSQTLSLTCSVTGDSITSGYWNWIRKFPGNKLEYMGYISDSGITYYNPSLKSRISITRDTSKNQYYLQLNSVTAEDTATYYCARRTLATYYAMDYWGQGTSVTVSSGSTSGSGKPGSGEGSTKGDFVMTQTPLSLPVSLGDQASISCRASQSLVHSNGNTYLHWYLQKPGQSPKLLIYRVSNRFSGVPDRFSGSGSGTDFTLKISRVEAEDLGVYFCSQSTHVPPTFGGGTKLEIKRTPVSEKQLAEVVANTITPLMKAQSVPGMAVAVIYQGKPHYYTFGKADIAANKPVTPQTLFELGSISKTFTGVLGGDAIARGEISLDDAVTRYWPQLTGKQWQGIRMLDLATYTAGGLPLQVPDEVTDNASLLRFYQNWQPQWKPGTTRLYANASIGLFGALAVKPSGMPYEQAMTTRVLKPLKLDHTWINVPKAEEAHYAWGYRDGKAVRVSPGMLDAQAYGVKTNVQDMANWVMANMAPENVADASLKQGIALAQSRYWRIGSMYQGLGWEMLNWPVEANTVVETSFGNVALAPLPVAEVNPPAPPVKASWVHKTGSTGGFGSYVAFIPEKQIGIVMLANTSYPNPARVEAAYHILEALQ | 1.75 | 0.000638 | 364000 | – | 100 |
| L49-sFv-bL mutant FP950 (N H91 Y) (scFv) scFv: MEVQLQESGPSLVKPSQTLSLTCSVTGDSITSGYWNWIRKFPGNKLEYMGYISDSGITYYNPSLKSRISITRDTSKNQYYLQLNFVTAEDTATYYCARRTLATYYAMDYWGQGTSVTVSSGSTSGSGKPGSGEGSTKGDFVMTQTPLSLPVSLGDQASISCRASQSLVHSNGNTYLHWYLQKPGQSPKLLIYRVSNRFSGVPDRFSGSGSGTDFTLKISRVEAEDLGVYFCSQSTHVPPTFGGGTKLEIKRTPVSEKQLAEVVANTITPLMKAQSVPGMAVAVIYQGKPHYYTFGKADIAANKPVTPQTLFELGSISKTFTGVLGGDAIARGEISLDDAVTRYWPQLTGKQWQGIRMLDLATYTAGGLPLQVPDEVTDNASLLRFYQNWQPQWKPGTTRLYANASIGLFGALAVKPSGMPYEQAMTTRVLKPLKLDHTWINVPKAEEAHYAWGYRDGKAVRVSPGMLDAQAYGVKTNVQDMANWVMANMAPENVADASLKQGIALAQSRYWRIGSMYQGLGWEMLNWPVEANTVVETSFGNVALAPLPVAEVNPPAPPVKASWVHKTGSTGGFGSYVAFIPEKQIGIVMLANTSYPNPARVEAAYHILEALQ | – | – | – | binds | – |
| L49-sFv-bL mutant FP930 (K H39 Q) (scFv) scFv: MEVQLQESGPSLVKPSQTLSLTCSVTGDSITSGYWNWIRQFPGNKLEYMGYISDSGITYYNPSLKSRISITRDTSKNQYYLQLNFVTAEDTATYNCARRTLATYYAMDYWGQGTSVTVSSGSTSGSGKPGSGEGSTKGDFVMTQTPLSLPVSLGDQASISCRASQSLVHSNGNTYLHWYLQKPGQSPKLLIYRVSNRFSGVPDRFSGSGSGTDFTLKISRVEAEDLGVYFCSQSTHVPPTFGGGTKLEIKRTPVSEKQLAEVVANTITPLMKAQSVPGMAVAVIYQGKPHYYTFGKADIAANKPVTPQTLFELGSISKTFTGVLGGDAIARGEISLDDAVTRYWPQLTGKQWQGIRMLDLATYTAGGLPLQVPDEVTDNASLLRFYQNWQPQWKPGTTRLYANASIGLFGALAVKPSGMPYEQAMTTRVLKPLKLDHTWINVPKAEEAHYAWGYRDGKAVRVSPGMLDAQAYGVKTNVQDMANWVMANMAPENVADASLKQGIALAQSRYWRIGSMYQGLGWEMLNWPVEANTVVETSFGNVALAPLPVAEVNPPAPPVKASWVHKTGSTGGFGSYVAFIPEKQIGIVMLANTSYPNPARVEAAYHILEALQ | – | – | – | binds | – |
| 940 (scFv, also called FP940; L49-sFv-bL mutant FP940 (Y H78 A)) MEVQLQESGPSLVKPSQTLSLTCSVTGDSITSGYWNWIRKFPGNKLEYMGYISDSGITYYNPSLKSRISITRDTSKNQAYLQLNFVTAEDTATYNCARRTLATYYAMDYWGQGTSVTVSSGSTSGSGKPGSGEGSTKGDFVMTQTPLSLPVSLGDQASISCRASQSLVHSNGNTYLHWYLQKPGQSPKLLIYRVSNRFSGVPDRFSGSGSGTDFTLKISRVEAEDLGVYFCSQSTHVPPTFGGGTKLEIKRTPVSEKQLAEVVANTITPLMKAQSVPGMAVAVIYQGKPHYYTFGKADIAANKPVTPQTLFELGSISKTFTGVLGGDAIARGEISLDDAVTRYWPQLTGKQWQGIRMLDLATYTAGGLPLQVPDEVTDNASLLRFYQNWQPQWKPGTTRLYANASIGLFGALAVKPSGMPYEQAMTTRVLKPLKLDHTWINVPKAEEAHYAWGYRDGKAVRVSPGMLDAQAYGVKTNVQDMANWVMANMAPENVADASLKQGIALAQSRYWRIGSMYQGLGWEMLNWPVEANTVVETSFGNVALAPLPVAEVNPPAPPVKASWVHKTGSTGGFGSYVAFIPEKQIGIVMLANTSYPNPARVEAAYHILEALQ | – | – | – | binds | – |
